How the values were obtained:
Format in all cases: in vitro ADME
[1] = Autosampler (re-injection) stability at 4°C for 24 h; settings: autosampler (AS) 4°C, triplicate, 2D-LC-MS/MS
Experimental: (§1) The stability tests of all insulins were performed at two concentration levels (193 and 7752 pg/mL). One set of tests was performed with artificial plasma and the other set with artificial plasma containing 1% PIC. Each concentration level was tested in triplicate. These QC samples were quantified using an artificial plasma calibration curve without PIC, and the obtained concentrations were compared with the nominal concentrations of the low quality control (LQC) and high quality control (HQC), which were set to 100%. To evaluate the stability of insulins in artificial plasma containing 1% PIC, we considered the concentration measured at time zero as the baseline (100%). All subsequent changes in concentration were calculated relative to this initial measurement.
(§2) Short‐term stability, long‐term stability, and freeze‐thaw stability were evaluated in this study. LQC and HQC samples were stored at room temperature and in a refrigerator for 3, 6, and 24 h to assess short‐term (bench‐top) stability and at 4°C in the autosampler for 24 h to assess re‐injection stability.

[2] = Freeze-thaw stability in artificial plasma after storage at −80°C; settings: stored at −80°C, triplicate, 2D-LC-MS/MS; for 24 h, change (%): cycle at 24 h; for 48 h, change (%): cycle at 48 h; for 72 h, change (%): cycle at 72 h
Experimental: as §1, §2

[3] = Long-term stability in artificial plasma at −20°C; settings: triplicate, 2D-LC-MS/MS
Experimental: as §1, §2

[4] = Long-term stability in artificial plasma at −80°C; settings: triplicate, 2D-LC-MS/MS
Experimental: as §1, §2

[5] = extracted samples from artificial plasma with 1% PIC, 193 pg/mL, % of concentration at time zero (=100%)
[6] = extracted samples from artificial plasma with 1% PIC, 7752 pg/mL, % of concentration at time zero (=100%)
[7] = extracted samples from artificial plasma without PIC, 193 pg/mL, % of nominal concentration (=100%)
[8] = extracted samples from artificial plasma without PIC, 7752 pg/mL, % of nominal concentration (=100%)
[9] = artificial plasma (BZ273) with 1% PIC, 193 pg/mL, % of concentration at time zero
[10] = artificial plasma (BZ273) with 1% PIC, 7752 pg/mL, % of concentration at time zero
[11] = artificial plasma (BZ273) without PIC, 193 pg/mL, % of nominal concentration
[12] = artificial plasma (BZ273) without PIC, 7752 pg/mL, % of nominal concentration
[13] = artificial plasma (BZ273) without PIC, 7752 pg/mL, % of nominal concentration, listed as Insulin aspart

With detemir the “24 h AS, change (%)” value [1, 5] was “<LLOQ”, the “24 h AS, change (%)” value [1, 6] was 66.0% and the “24 h AS, change (%)” value [1, 7] was 98.4%. The “24 h AS, change (%)” value [1, 8] was 93.7%, the “24 h, change (%)” value [2, 9] was 115.2% and the “24 h, change (%)” value [2, 10] was 375.0%. The “24 h, change (%)” value [2, 11] was 253.5%, the “24 h, change (%)” value [2, 12] was 168.5% and the “48 h, change (%)” value [2, 9] was 140.6%. For the same substance, the “48 h, change (%)” value [2, 10] was 344.2%, the “48 h, change (%)” value [2, 11] was 349.6% and the “48 h, change (%)” value [2, 12] was 195.4%. For the same substance, the “72 h, change (%)” value [2, 9] was 116.7%, the “72 h, change (%)” value [2, 10] was 285.9% and the “72 h, change (%)” value [2, 11] was 243.7%. The “72 h, change (%)” value [2, 12] was 161.5%, the “1 week, change (%)” value [3, 9] was “<LLOQ” and the “1 week, change (%)” value [3, 10] was 71.2%. The “1 week, change (%)” value [3, 11] was “<LLOQ”, the “1 week, change (%)” value [3, 12] was 27.0% and the “2 weeks, change (%)” value [3, 9] was “<LLOQ”. The “2 weeks, change (%)” value [3, 10] was 71.8%, the “2 weeks, change (%)” value [3, 11] was “<LLOQ” and the “2 weeks, change (%)” value [3, 12] was 24.8%. The “3 weeks, change (%)” value [3, 9] was “<LLOQ”, the “3 weeks, change (%)” value [3, 10] was 62.2% and the “3 weeks, change (%)” value [3, 11] was “<LLOQ”. The “3 weeks, change (%)” value [3, 12] was 21.9%, the “1 week, change (%)” value [4, 9] was “<LLOQ” and the “1 week, change (%)” value [4, 10] was 139.1%. The “1 week, change (%)” value [4, 11] was 64.2%, the “1 week, change (%)” value [4, 12] was 63.2% and the “2 weeks, change (%)” value [4, 9] was “<LLOQ”. The “2 weeks, change (%)” value [4, 10] was 173.5%, the “2 weeks, change (%)” value [4, 11] was 50.5% and the “2 weeks, change (%)” value [4, 12] was 54.7%. The “3 weeks, change (%)” value [4, 9] was “<LLOQ”, the “3 weeks, change (%)” value ([4]; artificial plasma (BZ273) with 1% PIC, 193 pg/mL, % of concentration at time zero, listed as Insulin detemir) was “< LLOQ” and the “3 weeks, change (%)” value [4, 10] was 154.5%. For the same substance, the “3 weeks, change (%)” value [4, 11] was 34.1% and the “3 weeks, change (%)” value [4, 12] was 49.4%.

For glulisine, the “24 h AS, change (%)” value [1, 5] was 93.2%, the “24 h AS, change (%)” value [1, 7] was 97.6% and the “24 h AS, change (%)” value [1, 8] was 82.2%. For the same substance, the “24 h, change (%)” value [2, 9] was 79.0%, the “24 h, change (%)” value [2, 10] was 93.1% and the “24 h, change (%)” value [2, 11] was 99.0%. For the same substance, the “24 h, change (%)” value [2, 12] was 92.3%, the “48 h, change (%)” value [2, 9] was 106.9% and the “48 h, change (%)” value [2, 10] was 119.5%. The “48 h, change (%)” value [2, 12] was 95.2%, the “72 h, change (%)” value [2, 9] was 92.4% and the “72 h, change (%)” value [2, 10] was 95.0%. The “72 h, change (%)” value [2, 11] was 106.5%, the “72 h, change (%)” value [2, 12] was 81.1% and the “1 week, change (%)” value [3, 9] was 51.7%. For the same substance, the “1 week, change (%)” value [3, 10] was 55.6%, the “1 week, change (%)” value [3, 11] was 99.7% and the “1 week, change (%)” value [3, 12] was 86.2%. For the same substance, the “2 weeks, change (%)” value [3, 9] was 36.7%, the “2 weeks, change (%)” value [3, 10] was 143.0% and the “2 weeks, change (%)” value [3, 12] was 84.0%. The “3 weeks, change (%)” value [3, 9] was 29.2%, the “3 weeks, change (%)” value [3, 10] was 31.5% and the “3 weeks, change (%)” value [3, 11] was 84.8%. For the same substance, the “3 weeks, change (%)” value [3, 12] was 79.8%, the “1 week, change (%)” value [4, 10] was 88.1% and the “1 week, change (%)” value [4, 11] was 103.5%. The “1 week, change (%)” value [4, 12] was 84.5%, the “2 weeks, change (%)” value [4, 10] was 117.9% and the “2 weeks, change (%)” value [4, 11] was 102.7%. For the same substance, the “2 weeks, change (%)” value [4, 12] was 83.7%, the “3 weeks, change (%)” value [4, 9] was 79.1% and the “3 weeks, change (%)” value [4, 10] was 95.2%. For the same substance, the “3 weeks, change (%)” value [4, 11] was 98.8% and the “3 weeks, change (%)” value [4, 12] was 75.6%.

With insulin aspart the “24 h AS, change (%)” value [1, 6] was 125.7%, the “24 h AS, change (%)” value [1, 7] was 92.6% and the “24 h, change (%)” value [2, 9] was 111.6%. The “24 h, change (%)” value [2, 10] was 117.4%, the “24 h, change (%)” value [2, 11] was 90.4% and the “24 h, change (%)” value [2, 12] was 100.00%. For the same substance, the “24 h, change (%)” value [2, 13] was 100.0%, the “48 h, change (%)” value [2, 9] was 111.6% and the “48 h, change (%)” value [2, 10] was 115.5%. The “48 h, change (%)” value [2, 11] was 98.1%, the “72 h, change (%)” value [2, 9] was 93.7% and the “72 h, change (%)” value [2, 10] was 99.8%. The “72 h, change (%)” value [2, 11] was 85.7%, the “72 h, change (%)” value [2, 12] was 92.10% and the “72 h, change (%)” value [2, 13] was 92.1%. For the same substance, the “1 week, change (%)” value [3, 9] was 70.7%, the “1 week, change (%)” value [3, 10] was 72.2% and the “1 week, change (%)” value [3, 11] was 105.6%. The “1 week, change (%)” value [3, 12] was 104.3%, the “2 weeks, change (%)” value [3, 9] was 58.4% and the “2 weeks, change (%)” value [3, 10] was 62.5%. For the same substance, the “2 weeks, change (%)” value [3, 11] was 107.3%, the “2 weeks, change (%)” value [3, 12] was 100.2% and the “3 weeks, change (%)” value [3, 9] was 39.5%. For the same substance, the “3 weeks, change (%)” value [3, 10] was 35.8%, the “3 weeks, change (%)” value [3, 11] was 101.4% and the “3 weeks, change (%)” value [3, 12] was 95.2%. For the same substance, the “1 week, change (%)” value [4, 9] was 116.5%, the “1 week, change (%)” value [4, 10] was 123.4% and the “1 week, change (%)” value [4, 11] was 106.0%. The “1 week, change (%)” value [4, 12] was 104.7%, the “2 weeks, change (%)” value [4, 9] was 99.6% and the “2 weeks, change (%)” value [4, 10] was 106.6%. For the same substance, the “2 weeks, change (%)” value [4, 12] was 97.2%, the “3 weeks, change (%)” value [4, 9] was 93.4% and the “3 weeks, change (%)” value [4, 10] was 108.9%. The “3 weeks, change (%)” value [4, 11] was 97.8% and the “3 weeks, change (%)” value [4, 12] was 92.8%.
